{
  "source": "paper PMC4414485",
  "key": {"[1]": {"biological_target": "hERG1a(R56Q).Citrine (human) (UniProt Q12809)"}, "[2]": {"biological_target": "hERG1a(R56Q).Citrine (human) (UniProt Q12809)", "remark": "listed apart in the source"}},
  "data": [
    {"substance": "isolated eag domain of hERG fused to CFP (i-eag.CFP) (domain or fragment)", "values": [
      {"measurement": "fast deactivation time constant (tau fast) of hERG1a(R56Q) tail currents with co-expressed i-eag in HEK293 cells, whole-cell patch clamp, -120 to -20 mV (slower than hERG1a(R56Q) alone)", "setting": "[1]", "value": 307, "unit": "ms"},
      {"measurement": "fast deactivation time constant (tau fast) of hERG1a(R56Q) tail currents with co-expressed i-eag in hiPSC-CMs, whole-cell patch clamp, -120 to -20 mV (slower than hERG1a(R56Q) alone)", "setting": "[1]", "value": 326, "unit": "ms"},
      {"measurement": "slow deactivation time constant (tau slow) of hERG1a(R56Q) tail currents with co-expressed i-eag in HEK293 cells, whole-cell patch clamp, -120 to -20 mV (slower than hERG1a(R56Q) alone)", "setting": "[1]", "value": 1780, "unit": "ms"},
      {"measurement": "slow deactivation time constant (tau slow) of hERG1a(R56Q) tail currents with co-expressed i-eag in hiPSC-CMs, whole-cell patch clamp, -120 to -20 mV (slower than hERG1a(R56Q) alone)", "setting": "[1]", "value": 2340, "unit": "ms"},
      {"measurement": "V1/2 of steady-state inactivation of hERG R56Q channels with co-expressed i-eag in HEK293 cells (hERG R56Q alone -13.6 mV, WT hERG -32.2 mV)", "setting": "[2]", "value": -24.7, "unit": "mV"}
    ]}
  ]
}
